Data on two molecules can be found in US20160355591A1 (published 2016).

Usually EC50 stands for the concentration giving half of the maximal effect. The low end stands for greater potency, the high end for weaker potency.

For assay [1], the target named is T1, HLA-DR (human leukocyte antigen-DR) on human lymphoma and leukemia cells and human lymphocytes (human, UniProt P01903 26-254; P01911 30-266).
T1 construct: whole, on cells; Natural antigen on Raji, Daudi, Ramos, Namalwa and other cell lines; also called cell surface antigen (Ag) recognized by L243
In words: competition cell-binding assay on human lymphoma cells; reference mL243. As to the method: (§1) Unbound Abs were removed by washing the cells in PBS. The radioactivity associated with cells was determined after washing.

Assay [2] deals with T1, HLA-DR (human leukocyte antigen-DR) on …. In words: competition cell-binding assay, unlabeled antibody against 125I-labeled L243 antibody on human lymphoma cells (FIG. 6: Raji). As to the method: as §1
The target is the same in assay [3]. Put plainly: direct cell surface saturation binding of 125I-labeled antibody to Daudi cells, 4 C, Scatchard plot; apparent dissociation constant. As to the method: The cell-associated radioactivity was counted, specific binding of radiolabeled antibody to the cell surface antigen calculated, and Scatchard plot analysis was then applied to determine the maximum number of binding sites per cell and the apparent antigen-binding affinity constant.
To measure specific cell surface antigen binding, two sets of cells were prepared and used in the binding assay to estimate the non-specific and total binding of radioactivities, respectively. The cells for non-specific binding were pre-incubated with excess amount of unlabled Ab to block all surface antigen sites prior to adding the radiolabeled antibody, while those for total binding were pre-incubated in PBS. […] The cell-associated radioactivity was counted. The specific cell surface binding of the radiolabeled antibody at a given concentration of radiolabeled antibody was calculated as: the counts of total binding minus the counts of non-specific binding.

B1: hL243γ4P (IMMU-114; humanized L243, IgG4/K isotype with Ser241Pro hinge mutation) (antibody, V domains shown)
VH: QVQLQQSGSELKKPGASVKVSCKASGFTFTNYGMNWVKQAPGQGLKWMGWINTYTREPTYADDFKGRFAFSLDTSVSTAYLQISSLKADDTAVYFCARDITAVVPTGFDYWGQGSLVTVSS
VL: DIQLTQSPSSLSASVGDRVTITCRASENIYSNLAWYRQKPGKAPKLLVFAASNLADGVPSRFSGSGSGTDYTFTISSLQPEDIATYYCQHFWTTPWAFGGGTKLQIKR
notes: Same V regions as hL243; also called hL243g4P; hL243gamma4P
Turning to B1, in assay [1], the “fold stronger binding avidity than mL243” value is ~2 fold. In addition, the EC50 in assay [2] is ~7 nM. In addition, in assay [3], the Kd was found to be 2.6 nM.

B2: mL243 (murine L243 anti-HLA-DR monoclonal antibody, IgG2a, ATCC HB55) (antibody, V domains shown)
VH: QIQLVQSGPELKKPGETVKISCKASGFTFTNYGMNWVKQAPGKGLKWMGWINTYTREPTYADDFKGRFAFSLETSASTAYLQINNLKNEDTAKYFCARDITAVVPTGFDYWGQGTTLTVSS
VL: DIQMTQSPASLSVSVGETVTITCRASENIYSNLAWYRQKQGKSPQLLVFAASNLADGVPSRFSGSGSGTQYSLKINSLQSEDFGDYYCQHFWTTPWAFGGGTNLEIKR
notes: Murine IgG2a from hybridoma ATCC HB55; also called mL234; L234
Consider B2, for which the concentration for a half-maximal effect (EC50) in assay [2] is ~16.5 nM. Besides, in assay [3], the Kd stood at 14 nM.
